Measurements published in patent publication US20250043313.

Biological target: SuperFi-Cas9 (7-D Cas9) 7-D: seven RuvC loop residues shown in FIG. 4b each mutated to Asp (individual residues not listed in text) (Streptococcus pyogenes) (UniProt Q99ZW2)
Test: cleavage_in_vitro
Conditions: PAM TGG, 10 mM Mg2+, 37 C

GACGCAUAAAGAUGAGACGC / AGCTGACGTTTGTACTCCAGCGTCTCATCTTTATGCCAGAGCAGAGATTTCTGCT / AGCAGAAATCTCTGCTCTGGCATAAAGATGAGACGCTGGAGTACAAACGTCAGCT [sgRNA ; 18-20 MM DNA]
activity (kobs +/- 0.0002, amplitude 8.4 nM, 500-fold slower than on-target): 0.004 s⁻¹

GACGCAUAAAGAUGAGACGC / AGCTGACGTTTGTACTCCAGCGTCTCATCTTTATGCGTCAGCAGAGATTTCTGCT / AGCAGAAATCTCTGCTGACGCATAAAGATGAGACGCTGGAGTACAAACGTCAGCT [sgRNA ; On-target DNA]
activity (kobs +/- 0.1, amplitude 7.7 nM, 6.3-fold preference over 18-20 MM in competition): 2 s⁻¹
